Assay results: PMC5816668, “Insights into the inhibitory mechanisms of NADH on the αγ heterodimer of human NAD-dependent isocitrate dehydrogenase” (Scientific Reports, 2018)

Substrate: NC(=O)c1ccc[n+]([C@@H]2O[C@H](COP(=O)(O)OP(=O)(O)OC[C@H]3O[C@@H](n4cnc5c(N)ncnc54)[C@H](O)[C@@H]3O)[C@@H](O)[C@H]2O)c1
Test: purified protein
Format: biochemical, Homo sapiens
Settings: 33 mM Tris-acetate pH 7.4, 2 mM Mn2+, 20 mM DL-isocitrate, 25 °C, no NADH, Michaelis-Menten fit, varied: cofactor

B1: αγ heterodimer of human NAD-IDH (Homo sapiens) (protein)
chain 1: TGGVQTVTLIPGDGIGPEISAAVMKIFDAAKAPIQWEERNVTAIQGPGGKWMIPSEAKESMDKNKMGLKGPLKTPIAAGHPSMNLLLRKTFDLYANVRPCVSIEGYKTPYTDVNIVTIRENTEGEYSGIEHVIVDGVVQSIKLITEGASKRIAEFAFEYARNNHRSNVTAVHKANIMRMSDGLFLQKCREVAESCKDIKFNEMYLDTVCLNMVQDPSQFDVLVMPNLYGDILSDLCAGLIGGLGVTPSGNIGANGVAIFESVHGTAPDIAGKDMANPTALLLSAVMMLRHMGLFDHAARIEAACFATIKDGKSLTKDLGGNAKCSDFTEEICRRVKDLD
chain 2: FSEQTIPPSAKYGGRHTVTMIPGDGIGPELMLHVKSVFRHACVPVDFEEVHVSSNADEEDIRNAIMAIRRNRVALKGNIETNHNLPPSHKSRNNILRTSLDLYANVIHCKSLPGVVTRHKDIDILIVRENTEGEYSSLEHESVAGVVESLKIITKAKSLRIAEYAFKLAQESGRKKVTAVHKANIMKLGDGLFLQCCREVAARYPQITFENMIVDNTTMQLVSRPQQFDVMVMPNLYGNIVNNVCAGLVGGPGLVAGANYGHVYAVFETATRNTGKSIANKNIANPTATLLASCMMLDHLKLHSYATSIRKAVLASMDNENMHTPDIGGQGTTSEAIQDVIRHIRVINGRAVEA
notes: E. coli BL21(DE3) Codon-Plus co-expression from pQlinkN-α-γ-tev-His6; C-terminal His6 of gamma cut with TEV protease; alpha 37 kDa, gamma 39 kDa; heterodimer
K0.5: 0.267 ± 0.002 mM
